Assays:
[1] = target: 2G12; test: ELISA; conditions: read at the highest antibody concentration, 1 µg/ml 2G12, read off a plot
[2] = target: 3BC176 IgG; test: ELISA; conditions: parent: est. 0.92; read off a plot
[3] = target: PGT145; test: ELISA; conditions: read at the highest antibody concentration, about 15 µg/ml PGT145; parent: est. 0.87; read off a plot
[4] = target: BG505 SOSIP.664 trimer produced in 293S cells (HIV-1 isolate BG505); test: ITC
[5] = target: BG505 SOSIP.664 trimer produced in 293S cells, deglycosylated by EndoH (HIV-1 isolate BG505); test: ITC; Auto-iTC200; trimer in the cell at 4.0–5.0 μM, 3BC315 Fab in the syringe at ~20 × the molar concentration of the trimer; single-site binding model
[6] = target: His-tagged BG505 SOSIP.664 trimer produced in 293S cells, EndoH-deglycosylated (HIV-1 isolate BG505); test: SPR; Biacore 3000, 25 °C, HBS-EP; His-tagged trimer captured by anti-histidine antibody on CM5 to 500 RU; 3BC315 IgG or Fab titrated down in twofold steps from 1 μM; IgG fitted with a bivalent, Fab with a Langmuir model
[7] = target: His-tagged BG505 SOSIP.664 trimer produced in 293T cells (HIV-1 isolate BG505); test: SPR; set-up: kon1: unit not given here
[8] = target: 3BC315 Fab; test: ELISA; conditions: read off a plot
[9] = target: BG505 Env on virus (HIV-1 isolate BG505)
[10] = target: JR-FL Env on virus (HIV-1 isolate JR-FL) (UniProt Q75760)

D7324-tagged BG505 SOSIP.664 trimer produced in 293T cells W623A
response ([1]; parent: est. 1.25): 1.2 OD450 | response [2]: 0.4 OD450 | response [3]: 0.83 OD450

3BC315 Fab
Kd [4]: 186 nM | stoichiometry N [4]: 1.17 | Kd [5]: 167 nM | stoichiometry N [5]: 1.71 | Kd [6]: 7.1 nM | koff [6]: 0.00059 s⁻¹ | stoichiometry N [6]: 1.9

3BC315 IgG (antibody)
Kd1 [7]: < 10 nM | Kd2 [7]: 24 RU | koff1 [7]: < 1e-05 s⁻¹ | koff2 [7]: 0.0084 s⁻¹ | kon1 [7]: 4900 | kon2 [7]: 0.00034 RUs^−1 | stoichiometry N [7]: 1.1

D7324-tagged BG505 SOSIP.664 trimer produced in 293T cells N625Q; N637Q
response ([8]; read at the highest concentration, 10 µg/ml 3BC315 Fab, parent: est. 1.1): 0.93 OD450

D7324-tagged BG505 SOSIP.664 trimer produced in 293T cells N88Q
response ([1]; parent: est. 1.2): 1 OD450 | response [8]: 0.98 OD450

B1: 3BC176 IgG (antibody, V domains shown)
VH: QVQLMQSGAQLRDPGDSLKISCKASGYNFIDYHIHWVRLAPGRGLEWMGWIDPVGGITKYAGQFQGRLSLTRDTSTNTLFLELSRLTAGDTAVYFCARSMRPVDHGIDYSGLFVFHFWGRGSDVLVSS
VL: QSVLTQPASVSASPGQSITVSCTGSRNDVGGYDFVSWYQRHPGGVPKLIIYEISKRPSGIPQRFSGSRSGNTASLTISGLQDDDEADYYCCSYASYDRLIFGGGTRVSVL
IC50 of neutralisation of BG505 virus (TZM-bl) after 1, 3, 6 and 22 h pre-incubation with IgG (1.93 falling to 0.33) [9]: 1.93 µg/mL | IC50 of neutralisation of JR-FL virus (TZM-bl) after 1, 3, 6 and 22 h pre-incubation with IgG (0.30 falling to 0.03) [10]: 0.3 µg/mL

B2: 3BC315 IgG (antibody, V domains shown)
VH: QVQLVQSGAEMKDPGASVKVSCRASGYKFTDYYMHWVRQAPGQGLEWVGWVNTNGGFTKYGAKFQGRVTVTRDTSTNTVFLELSRLTFGDTAMYFCARPMRPVSHGIDYSGLFVFQFWGRGTMVTVSS
VL: QSALTQPASVSASPGQSITISCSGTRSDVGGYDFVSWYQQHPGKVPKLIIYEVTKRPSGIPQRFSGSKSGNTASLTISGLQADDEADYYCCSYANYDKLILGGGTKLTVL
IC50 of neutralisation of BG505 virus (TZM-bl) after 1, 3, 6 and 22 h pre-incubation with IgG (1.62 falling to 0.41) [9]: 1.62 µg/mL | IC50 of neutralisation of JR-FL virus (TZM-bl) after 1, 3, 6 and 22 h pre-incubation with IgG (5.84 falling to 0.83) [10]: 5.84 µg/mL
